Publication PMC7125077
Blank lines part the entries; values can stand above or below the substance they belong to.

Columns and labels:
[1] = biological target: Chaetomium thermophilum XPD, wild type (Chaetomium thermophilum); assay: native gel or EMSA; native PAGE of ctXPD with the ctMAT1 fragments ctMAT1Archway and ctMAT1Lock at similar concentrations (Supplementary Fig. 2c); unbound fragment quantified
[2] = biological target: ctXPD K369A (Chaetomium thermophilum)
[3] = biological target: Chaetomium thermophilum XPD, wild type (Chaetomium thermophilum)
[4] = biological target: T1, human XPD, wild type (XPD-FLAG) (human) (UniProt P18074)
T1 sequence: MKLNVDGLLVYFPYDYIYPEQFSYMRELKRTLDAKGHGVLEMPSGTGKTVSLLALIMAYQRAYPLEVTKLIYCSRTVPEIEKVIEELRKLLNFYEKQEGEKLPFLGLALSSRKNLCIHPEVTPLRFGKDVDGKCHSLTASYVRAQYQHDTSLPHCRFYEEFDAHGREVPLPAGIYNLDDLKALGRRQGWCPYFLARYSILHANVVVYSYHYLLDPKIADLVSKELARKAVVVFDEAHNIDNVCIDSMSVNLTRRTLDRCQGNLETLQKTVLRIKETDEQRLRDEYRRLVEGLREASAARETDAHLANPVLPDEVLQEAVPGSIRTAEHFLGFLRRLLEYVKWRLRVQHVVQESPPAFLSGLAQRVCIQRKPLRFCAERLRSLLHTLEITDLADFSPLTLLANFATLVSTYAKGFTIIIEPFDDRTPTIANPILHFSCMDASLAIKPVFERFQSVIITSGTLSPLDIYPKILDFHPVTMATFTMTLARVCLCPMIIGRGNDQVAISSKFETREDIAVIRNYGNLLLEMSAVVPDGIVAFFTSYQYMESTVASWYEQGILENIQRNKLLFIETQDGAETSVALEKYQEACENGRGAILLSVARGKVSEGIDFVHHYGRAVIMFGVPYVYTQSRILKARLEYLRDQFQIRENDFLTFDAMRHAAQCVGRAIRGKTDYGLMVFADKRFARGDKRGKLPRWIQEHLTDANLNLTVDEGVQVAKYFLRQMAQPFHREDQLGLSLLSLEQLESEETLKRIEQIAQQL

[5] = system: ctXPD R333E/R334E (Chaetomium thermophilum); assay: fluorescence anisotropy; conditions: 5 mM Mg2+; no MAT1; ctXPD: 20 mM HEPES pH 7.5, 50 mM KCl, 5 mM MgCl2, 1 mM TCEP, 5 nM DNA, room temperature; ctDDX11: 25 mM HEPES pH 7.5, 25 mM KCl, 1 mM MgSO4, 1 mM TCEP, 2 nM …
[6] = system: ctXPD wild type;ctMAT1Lock (Chaetomium thermophilum;Chaetomium thermophilum); assay: fluorescence anisotropy; conditions: 5 mM Mg2+; equimolar ctMAT1Lock; ctXPD: 20 mM HEPES pH 7.5, 50 mM KCl, 5 mM MgCl2, 1 mM TCEP, 5 nM DNA, room temperature; ctDDX11: 25 mM HEPES pH 7.5, 25 mM KCl, 1 mM MgSO4, 1 mM TCEP, 2 nM …
[7] = system: ctDDX11 K427E/K428E (Chaetomium thermophilum); assay: fluorescence anisotropy; conditions: 1 mM MgSO4, 25 mM HEPES pH 7.5, 25 mM KCl, 2 nM DNA, ctXPD: 20 mM HEPES pH 7.5, 50 mM KCl, 5 mM MgCl2, 1 mM TCEP, 5 nM DNA, room temperature, ctDDX11: 25 mM HEPES pH 7.5, 25 mM KCl, 1 mM MgSO4, 1 mM TCEP
[8] = system: ctXPD R324E (Chaetomium thermophilum); assay: fluorescence anisotropy; conditions: 5 mM Mg2+; no MAT1; ctXPD: 20 mM HEPES pH 7.5, 50 mM KCl, 5 mM MgCl2, 1 mM TCEP, 5 nM DNA, room temperature; ctDDX11: 25 mM HEPES pH 7.5, 25 mM KCl, 1 mM MgSO4, 1 mM TCEP, 2 nM …
[9] = system: ctXPD R323S/R324S (Chaetomium thermophilum); assay: fluorescence anisotropy; conditions: 5 mM Mg2+, ctXPD: 20 mM HEPES pH 7.5, 50 mM KCl, 5 mM MgCl2, 1 mM TCEP, 5 nM DNA, room temperature, ctDDX11: 25 mM HEPES pH 7.5, 25 mM KCl, 1 mM MgSO4, 1 mM TCEP, 2 nM …
[10] = system: ctXPD K369E (Chaetomium thermophilum); assay: fluorescence anisotropy; conditions: 5 mM Mg2+; no MAT1; text gives 54 nM; ctXPD: 20 mM HEPES pH 7.5, 50 mM KCl, 5 mM MgCl2, 1 mM TCEP, 5 nM DNA, room temperature; ctDDX11: 25 mM HEPES pH 7.5, 25 mM KCl, 1 mM MgSO4, 1 mM TCEP, 2 nM …
[11] = system: ctDDX11 wild type (Chaetomium thermophilum); assay: fluorescence anisotropy; conditions: 1 mM MgSO4, 25 mM HEPES pH 7.5, 25 mM KCl, 2 nM DNA, ctXPD: 20 mM HEPES pH 7.5, 50 mM KCl, 5 mM MgCl2, 1 mM TCEP, 5 nM DNA, room temperature, ctDDX11: 25 mM HEPES pH 7.5, 25 mM KCl, 1 mM MgSO4, 1 mM TCEP
[12] = system: ctXPD wild type (Chaetomium thermophilum); assay: fluorescence anisotropy; conditions: 5 mM Mg2+; no MAT1; ctXPD: 20 mM HEPES pH 7.5, 50 mM KCl, 5 mM MgCl2, 1 mM TCEP, 5 nM DNA, room temperature; ctDDX11: 25 mM HEPES pH 7.5, 25 mM KCl, 1 mM MgSO4, 1 mM TCEP, 2 nM …
[13] = system: ctXPD R333S/R334S (Chaetomium thermophilum); assay: fluorescence anisotropy; conditions: 5 mM Mg2+, ctXPD: 20 mM HEPES pH 7.5, 50 mM KCl, 5 mM MgCl2, 1 mM TCEP, 5 nM DNA, room temperature, ctDDX11: 25 mM HEPES pH 7.5, 25 mM KCl, 1 mM MgSO4, 1 mM TCEP, 2 nM …
[14] = system: ctXPD R323E (Chaetomium thermophilum); assay: fluorescence anisotropy; conditions: 5 mM Mg2+; no MAT1; ctXPD: 20 mM HEPES pH 7.5, 50 mM KCl, 5 mM MgCl2, 1 mM TCEP, 5 nM DNA, room temperature; ctDDX11: 25 mM HEPES pH 7.5, 25 mM KCl, 1 mM MgSO4, 1 mM TCEP, 2 nM …
[15] = equimolar ctMAT1Lock present (not bound by variant)

percent unbound ctMAT1 fragment [1]: 12.8%
inhibition of helicase activity of the ctXPD variant by ctMAT1Lock, IC50 [2]: 263 nM
inhibition of ctXPD helicase activity (with ctp44, 5' overhang substrate) by titration of the ctMAT1 construct, IC50 [3]: 220 nM
Substance: ctMAT1Lock (residues 1-157 of Chaetomium thermophilum MAT1) (domain or fragment)

in vitro run-off transcription with core-TFIIH lacking XPD (rIIH6), XPD and the CAK variant, residual activity against wild-type CAK [4]: 55%
Substance: human CAK with MAT1 D97S/E100S (from UniProt P51948 1-309; P50613 1-346; P51946 1-323) (complex)

Substance: AGCTACCATGCCTGCACGAATTAAGCAATTCGTAATCATGGTCATAGC / GCTATGACCATGATTACGAATTGCTTGGAATCCTGACGAACTGTAG [splayed duplex DNA]
Kd [5]: 108 nM
Kd [6]: 379 nM
Kd [7]: 50.8 nM
Kd [8]: 72 nM
Kd [9, 15]: 31 nM
Kd ([9]; no MAT1): 51 nM
Kd [10]: 55 nM
Kd [11]: 30.8 nM
Kd [12]: 66 nM
Kd [13, 15]: 128 nM
Kd ([13]; no MAT1): 154 nM
Kd [14]: 41 nM

percent unbound ctMAT1 fragment [1]: 84%
inhibition of ctXPD helicase activity (with ctp44, 5' overhang substrate) by titration of the ctMAT1 construct, IC50 [3]: 2990 nM
Substance: ctMAT1Archway (residues 83-157 of Chaetomium thermophilum MAT1) (domain or fragment)
